Reference: patent US20070212357A1 (published 2007)
Blank lines part the entries; values can stand above or below the molecule they belong to.

Experiments:
human NGF [1] = target: T1, human NGF (human, UniProt P01138 122-241); test: SPR (BIAcore), Fab over immobilized human NGF
T1 construct: also called hNGF; human nerve growth factor

human NGF [2] = target: T1, human NGF; test: SPR (BIAcore), Fab over CM5 chip with 100 RU of immobilized human NGF
rat NGF (rat) = rat NGF (rat) (UniProt P25427); test: cell-based or functional assay
human NGF [3] = target: T1, human NGF; test: cell-based or functional assay
human NGF [4] = target: T1, human NGF; test: SPR (BIAcore), Fab over immobilized human NGF; remark: listed apart in the source
human NGF [5] = target: T1, human NGF; test: SPR (BIAcore), human NGF on chip; KD calculated using kon 4e4 M-1s-1
human NGF [6] = target: T1, human NGF; test: SPR (BIAcore) screening, human NGF on chip; KD calculated using kon 4e4 M-1s-1
Experimental: Affinities of anti-NGF Fabs and monoclonal antibodies were determined using the BIAcore3000™ surface plasmon resonance (SPR) system (BIAcore, INC, Piscaway N.J.). CM5 chips were activated with N-ethyl-N′-(3-dimethylaminopropyl)-carbodiinide hydrochloride (EDC) and N-hydroxysuccinimide (NHS) according to the supplier's instructions. Human NGF was diluted into 10 mM sodium acetate pH 4.0 and injected over the activated chip at a concentration of 0.005 mg/mL. Using variable flow time across the individual chip channels, two ranges of antigen density were achieved: 100-200 response units (RU) for detailed kinetic studies and 500-600 RU for screening assays. The chip was blocked with ethanolamine. […] HBS-EP buffer (0.01M HEPES, pH 7.4, 0.15 NaCl, 3 mM EDTA, 0.005% Surfactant […]) was used as running buffer for all the BIAcore assays.

T1 sequence (P01138 122-241 limits assumed): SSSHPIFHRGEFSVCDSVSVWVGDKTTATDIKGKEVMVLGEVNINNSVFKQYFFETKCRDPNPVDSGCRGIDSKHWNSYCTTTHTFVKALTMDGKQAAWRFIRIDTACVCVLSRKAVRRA
rat NGF (rat), sequence (P25427 122-241 limits assumed): as the sequence (P01138 122-241 limits assumed) above, with S3T, I6V, R9M, M37T, D60A, D65E, M92T, G94D, V117A, A120G counted along it

Kd (human NGF [1]): 10 nM
koff (human NGF [2]): 8.4e-05 s⁻¹
Kd (human NGF [4]): 3.7 nM
koff (human NGF [4]): 9e-05 s⁻¹
kon (human NGF [4]): 22000 M⁻¹ s⁻¹
Molecule: mouse antibody 911 (Fab)
IC50 (1.5 pM NGF), rat NGF-dependent survival of mouse E13.5 trigeminal neurons (rat NGF (rat)): 34.6 pM
IC50 (15 pM NGF), rat NGF-dependent survival of mouse E13.5 trigeminal neurons (rat NGF (rat)): 161 pM
IC50 (in the presence of 1.5 pM NGF), human NGF-dependent survival of mouse E13.5 trigeminal neurons (human NGF [3]): 63.5 pM
IC50 (in the presence of 15 pM NGF), human NGF-dependent survival of mouse E13.5 trigeminal neurons (human NGF [3]): 322 pM

Kd (human NGF [5]): 3.5 nM
B1: H19-L129 (Fab, V domains shown)
VH: QVQLQESGPGLVKPSETLSLTCTVSGFSLIGYDLNWIRQPPGKGLEWIGIIWGDGTTDYNSAVKSRVTISKDTSKNQFSLKLSSVTAADTAVYYCARGGYYYGTSYYFDYWGQGTLVTVS
VL: DIQMTQSPSSLSASVGDRVTITCRASQSISNNLNWYQQKPGKAPKLLIYYTSRFHSGVPSRFSGSGSGTDFTFTISSLQPEDIATYYCQQSKTLPYTFGQGTKLEIKR
notes: Combined clone with matured CDRs H1, H2, L1, L2 and grafted H3 and L3; Fab; human Ck, human IgG2a CH1, his tag; also called H19-L129 Fab; Fab H19-L129

Kd (human NGF [6]): 25 nM
B2: L_S91E; L_K92R; H_Y101W; H_G103A (8L2-6D5 template) (Fab, V domains shown)
VH: QVQLQESGPGLVKPSETLSLTCTVSGFSLIGYDINWIRQPPGKGLEWIGMIWGDGTTDYNSALKSRVTISKDTSKNQFSLKLSSVTAADTAVYYCARGGYWYATSYYFDYWGQGTLVTVS
VL: DIQMTQSPSSLSASVGDRVTITCRASQDISNHLNWYQQKPGKAPKLLIYYISRFHSGVPSRFSGSGSGTDFTFTISSLQPEDIATYYCQQERTLPYTFGQGTKLEIKR
notes: Human Ck, human IgG2a CH1, his tag
